Measurements reported in patent US20250066490A1, “ANTI-CD70 ANTIBODIES, CONJUGATES THEREOF AND METHODS OF USING THE SAME” (ProfoundBio US Co., priority 2021, published 2025).

How the values were obtained:
[1] = Hydrophobic interaction chromatography (HIC); assay type: physicochemical; details: hydrophobicity by HIC, full IgG
Description: Antibodies were purified from cleared cell culture supernatants using Protein A chromatography (Protein A resin slurry, 4.5 mL, Bogen, Cat #18-0010-02). Briefly, supernatants were prepared for affinity chromatography and loaded onto the columns and allowed to flow completely through the resin. The columns were washed with binding buffer containing 0.15M NaCl and 0.2M PB, PH7.0. Antibody was eluted with elution buffer containing 0.15M NaCl, 0.1M Glycine and 0.2M PB, PH 3.0. Fractions were collected and neutralized by the addition of 1/10 volume of 1M Tris, PH9.0. The fractions were dialyzed for 2 hours against 1×PBS. Purified antibody was quantified by absorbance at A280. Samples from each step of the protein A chromatography were applied onto 12% SDS-PAGE gels for reduced and non-reduced electrophoresis. The hydrophobicity was assessed with hydrophobic interaction chromatography (HIC) on a TSK gel Butyl-NPR, 4.6×100 mm with Butyl-NPR (Tosoh corporation) using a Waters HPLC 2695 system.

CD70 ECD = biological target: T1, CD70 ECD (Homo sapiens, UniProt P32970); test: Biacore affinity measurement on immobilized CD70 ECD; assay type: binding; details: 25° C., CD70 immobilized
T1 sequence (P32970 39-193 limits assumed): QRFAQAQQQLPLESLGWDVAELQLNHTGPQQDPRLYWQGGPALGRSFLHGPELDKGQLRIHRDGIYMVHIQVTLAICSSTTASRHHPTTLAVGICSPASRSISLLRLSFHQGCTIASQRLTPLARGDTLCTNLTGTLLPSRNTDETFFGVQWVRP
Description: The immobilization of antigen CD70 ECD was performed at 25° C. with HBS-EP as the running buffer. Sensor chip surface of flow cells 1, 4 were activated by freshly mixed 50 mmol/L N-Hydroxy succinimide (NHS) and 200 mmol/L 1-ethyl-3-(3-dimethylaminopropyl) carbodiimide hydrochloride (EDC) for 420s (10 μL/min). Afterwards, CD70 antigen diluted in 10 mmol/L NaAC (pH 4.5) was injected into flow cell 4 to achieve conjugation of the appropriate Response Unit, while flow cell 1 was set as a blank. After the amine coupling reaction, the remaining active coupling sites on chip surface were blocked by 420s injection of 1 mol/L ethanolamine hydrochloride.
The assay was performed at 25° C. and the running buffer was HBS-EP. Diluted antibodies were injected over the surface of flow cells 1 and 4 during the association phase, followed by injecting running buffer as the dissociation phase. All the data were processed using Biacore T200 Evaluation software version 3.1. Flow cell 1 and a blank injection of buffer in each cycle were used as a double reference for Response Units subtraction. Kinetic data of the interaction between the antibodies and CD70 antigen were obtained through affinity measurement.

B1: 2A4: anti-CD70 antibody clone, VH SEQ 3 and VL SEQ 4; scFv and full human IgG1/kappa (antibody, V domains shown)
VH: QVQLQESGPGLVKPSETLSLTCTVSGGSVSSDYYYWSWIRQPPGKGLEWLGYIYYSGSTNYNPSLKSRVTISVDTSKNQFSLKLRSVTTADTAVYYCARGDGDYGGNVFPYWGQGTLVTVSS
VL: EIVLTQSPATLSLSPGERATLSCRASQSVSSYLAWYQQKPGQAPRLLIFDASNRATGIPARFSGSGSGTDFTLTISSLEPEDFAVYYCQQRSNWPLTFGGGTKVEIK
With B1 the “Retention time” value [1] was 9.06 min.

B2: Vorsetuzumab (antibody, V domains shown)
VH: QVQLVQSGAEVKKPGASVKVSCKASGYTFTNYGMNWVRQAPGQGLKWMGWINTYTGEPTYADAFKGRVTMTRDTSISTAYMELSRLRSDDTAVYYCARDYGDYGMDYWGQGTTVTVSS
VL: DIVMTQSPDSLAVSLGERATINCRASKSVSTSGYSFMHWYQQKPGQPPKLLIYLASNLESGVPDRFSGSGSGTDFTLTISSLQAEDVAVYYCQHSREVPWTFGQGTKVEIK
modifications: Synthetic h1F6 VH amino acid sequence; Synthetic h1F6 VL amino acid sequence
With B2 the “Rmax (RU)” value (CD70 ECD) was 19.27 RU, the “ka” value (CD70 ECD) was 45100 M⁻¹ s⁻¹ and the “kd” value (CD70 ECD) was 0.00236 s⁻¹.
